The values below are quoted from earlier work in PMC10696404.

By pKd is commonly meant the negative decadic logarithm of the Kd, by convention in mol/L.

Data set [1] has as its target NRP1 (Homo sapiens) (UniProt O14786). Nature of the data set: SPR.
In data set [2] the target is CD13 (Homo sapiens) (UniProt P15144). Nature of the data set: SPR.
In data set [3] the target is DLL4 (Homo sapiens) (UniProt Q9NR61). The experiment in a line: SPR. A general note: SPR reads the build-up and loss of mass on a sensor chip optically.
Data set [4] has as its target JAG1 (Homo sapiens) (UniProt P78504). The experiment in a line: SPR.
The target in data set [5] is CD146 ECD (Homo sapiens) (UniProt P43121). Nature of the data set: bio-layer interferometry. Background: In BLI a coated tip is dipped into the sample, and binding shifts an interference pattern.
The target of data set [6] is CEA (Homo sapiens) (UniProt P06731). Nature of the data set: SPR.
The target in data set [7] is ALCAM (Homo sapiens) (UniProt Q13740). Nature of the data set: SPR.
Data set [8] addresses CD44s (Homo sapiens) (UniProt P16070). The experiment in a line: SPR.
Data set [9] concerns the target CD44v3-10 (Homo sapiens) (UniProt P16070). The experiment in a line: SPR.
The target of data set [10] is CD44vRA (Homo sapiens) (UniProt P16070). The experiment in a line: SPR.

pKd: −log10 of the molar value. Values joined by “and” are separate entries in the source; they are usually repeats but may differ in a detail not shown here. Identical values can stand only once.

Sequence of GAL-8 (O00214 whole entry): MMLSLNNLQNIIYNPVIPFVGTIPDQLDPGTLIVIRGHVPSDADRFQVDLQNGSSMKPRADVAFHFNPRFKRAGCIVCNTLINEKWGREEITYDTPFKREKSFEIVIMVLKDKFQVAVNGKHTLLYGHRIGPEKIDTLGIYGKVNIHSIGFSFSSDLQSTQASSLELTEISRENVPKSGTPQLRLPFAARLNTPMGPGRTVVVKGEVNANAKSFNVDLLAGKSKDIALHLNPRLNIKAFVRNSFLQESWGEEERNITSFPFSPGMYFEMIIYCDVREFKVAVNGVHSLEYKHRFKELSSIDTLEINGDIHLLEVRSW
Sequence of GAL-3 (P17931 2-250): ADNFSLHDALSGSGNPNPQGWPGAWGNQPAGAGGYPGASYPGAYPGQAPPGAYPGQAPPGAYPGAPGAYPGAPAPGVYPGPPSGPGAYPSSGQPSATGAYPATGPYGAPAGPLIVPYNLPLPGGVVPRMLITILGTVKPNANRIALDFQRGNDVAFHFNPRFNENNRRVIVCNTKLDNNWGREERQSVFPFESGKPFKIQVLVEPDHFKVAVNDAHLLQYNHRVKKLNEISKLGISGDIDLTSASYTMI
Sequence of ALCAM (Homo sapiens) (Q13740 28-583): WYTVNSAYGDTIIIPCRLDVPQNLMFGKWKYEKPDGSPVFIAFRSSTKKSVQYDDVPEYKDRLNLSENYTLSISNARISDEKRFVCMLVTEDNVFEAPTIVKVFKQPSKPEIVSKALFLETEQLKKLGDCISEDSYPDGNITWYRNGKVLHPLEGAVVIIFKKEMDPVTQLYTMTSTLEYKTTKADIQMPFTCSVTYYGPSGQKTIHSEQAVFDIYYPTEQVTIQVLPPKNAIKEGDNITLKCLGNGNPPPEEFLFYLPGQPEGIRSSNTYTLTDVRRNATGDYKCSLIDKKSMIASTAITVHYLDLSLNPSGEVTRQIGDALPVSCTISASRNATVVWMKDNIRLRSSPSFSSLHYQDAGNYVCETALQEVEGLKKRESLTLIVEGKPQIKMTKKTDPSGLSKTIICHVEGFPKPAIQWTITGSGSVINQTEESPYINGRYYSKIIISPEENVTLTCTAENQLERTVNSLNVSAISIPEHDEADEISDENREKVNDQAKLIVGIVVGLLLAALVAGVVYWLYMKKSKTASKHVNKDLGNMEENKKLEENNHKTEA
Sequence of GAL-4 (P56470 whole entry): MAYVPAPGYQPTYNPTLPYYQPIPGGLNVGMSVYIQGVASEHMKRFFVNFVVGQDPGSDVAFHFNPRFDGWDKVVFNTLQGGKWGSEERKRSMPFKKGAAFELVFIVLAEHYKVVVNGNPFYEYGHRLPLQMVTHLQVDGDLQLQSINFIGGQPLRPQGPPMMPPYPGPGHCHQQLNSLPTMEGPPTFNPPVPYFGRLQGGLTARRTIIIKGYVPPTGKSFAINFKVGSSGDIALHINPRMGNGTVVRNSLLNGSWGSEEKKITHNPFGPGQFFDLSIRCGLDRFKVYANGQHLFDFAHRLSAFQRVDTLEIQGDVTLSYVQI
Sequence of CEA (Homo sapiens) (P06731 35-676): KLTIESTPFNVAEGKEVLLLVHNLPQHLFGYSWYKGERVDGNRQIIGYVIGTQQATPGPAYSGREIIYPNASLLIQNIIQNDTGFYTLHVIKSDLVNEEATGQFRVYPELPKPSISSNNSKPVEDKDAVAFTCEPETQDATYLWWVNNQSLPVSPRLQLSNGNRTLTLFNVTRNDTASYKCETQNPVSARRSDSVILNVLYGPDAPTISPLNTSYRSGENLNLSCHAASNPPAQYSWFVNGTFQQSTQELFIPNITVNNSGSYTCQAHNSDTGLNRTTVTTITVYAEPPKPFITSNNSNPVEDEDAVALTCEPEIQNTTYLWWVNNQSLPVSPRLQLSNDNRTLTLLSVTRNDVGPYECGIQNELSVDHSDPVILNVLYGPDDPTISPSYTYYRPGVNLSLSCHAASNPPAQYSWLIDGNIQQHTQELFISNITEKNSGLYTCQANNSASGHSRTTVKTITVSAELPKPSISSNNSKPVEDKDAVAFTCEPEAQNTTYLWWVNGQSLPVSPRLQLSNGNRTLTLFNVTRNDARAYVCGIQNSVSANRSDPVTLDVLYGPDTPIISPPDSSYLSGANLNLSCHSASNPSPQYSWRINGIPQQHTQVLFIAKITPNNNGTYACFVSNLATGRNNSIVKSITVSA
Sequence of NRP1 (Homo sapiens) (O14786 22-923): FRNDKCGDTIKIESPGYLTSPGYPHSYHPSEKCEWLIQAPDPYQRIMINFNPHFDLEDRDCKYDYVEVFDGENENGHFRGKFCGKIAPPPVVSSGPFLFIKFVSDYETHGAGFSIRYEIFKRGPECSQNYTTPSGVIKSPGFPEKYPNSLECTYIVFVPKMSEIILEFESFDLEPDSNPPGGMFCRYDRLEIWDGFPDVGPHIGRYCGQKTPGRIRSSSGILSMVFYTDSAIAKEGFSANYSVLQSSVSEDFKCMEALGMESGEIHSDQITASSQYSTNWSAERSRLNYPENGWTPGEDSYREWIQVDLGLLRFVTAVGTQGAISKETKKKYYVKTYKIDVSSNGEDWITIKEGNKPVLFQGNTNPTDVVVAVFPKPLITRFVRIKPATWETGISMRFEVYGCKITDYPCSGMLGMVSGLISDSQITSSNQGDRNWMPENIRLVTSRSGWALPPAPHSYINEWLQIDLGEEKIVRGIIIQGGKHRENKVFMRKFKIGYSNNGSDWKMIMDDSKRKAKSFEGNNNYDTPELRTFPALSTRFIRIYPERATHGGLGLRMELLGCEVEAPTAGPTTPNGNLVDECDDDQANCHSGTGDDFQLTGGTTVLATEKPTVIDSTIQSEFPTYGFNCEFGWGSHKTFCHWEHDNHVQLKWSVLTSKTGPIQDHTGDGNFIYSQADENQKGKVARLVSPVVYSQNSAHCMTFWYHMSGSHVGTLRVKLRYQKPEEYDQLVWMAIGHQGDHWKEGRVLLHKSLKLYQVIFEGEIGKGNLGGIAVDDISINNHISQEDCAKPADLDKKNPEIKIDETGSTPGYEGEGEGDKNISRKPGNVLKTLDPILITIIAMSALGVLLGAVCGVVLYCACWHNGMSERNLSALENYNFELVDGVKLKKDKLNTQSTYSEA
Sequence of JAG1 (Homo sapiens) (P78504 34-1218): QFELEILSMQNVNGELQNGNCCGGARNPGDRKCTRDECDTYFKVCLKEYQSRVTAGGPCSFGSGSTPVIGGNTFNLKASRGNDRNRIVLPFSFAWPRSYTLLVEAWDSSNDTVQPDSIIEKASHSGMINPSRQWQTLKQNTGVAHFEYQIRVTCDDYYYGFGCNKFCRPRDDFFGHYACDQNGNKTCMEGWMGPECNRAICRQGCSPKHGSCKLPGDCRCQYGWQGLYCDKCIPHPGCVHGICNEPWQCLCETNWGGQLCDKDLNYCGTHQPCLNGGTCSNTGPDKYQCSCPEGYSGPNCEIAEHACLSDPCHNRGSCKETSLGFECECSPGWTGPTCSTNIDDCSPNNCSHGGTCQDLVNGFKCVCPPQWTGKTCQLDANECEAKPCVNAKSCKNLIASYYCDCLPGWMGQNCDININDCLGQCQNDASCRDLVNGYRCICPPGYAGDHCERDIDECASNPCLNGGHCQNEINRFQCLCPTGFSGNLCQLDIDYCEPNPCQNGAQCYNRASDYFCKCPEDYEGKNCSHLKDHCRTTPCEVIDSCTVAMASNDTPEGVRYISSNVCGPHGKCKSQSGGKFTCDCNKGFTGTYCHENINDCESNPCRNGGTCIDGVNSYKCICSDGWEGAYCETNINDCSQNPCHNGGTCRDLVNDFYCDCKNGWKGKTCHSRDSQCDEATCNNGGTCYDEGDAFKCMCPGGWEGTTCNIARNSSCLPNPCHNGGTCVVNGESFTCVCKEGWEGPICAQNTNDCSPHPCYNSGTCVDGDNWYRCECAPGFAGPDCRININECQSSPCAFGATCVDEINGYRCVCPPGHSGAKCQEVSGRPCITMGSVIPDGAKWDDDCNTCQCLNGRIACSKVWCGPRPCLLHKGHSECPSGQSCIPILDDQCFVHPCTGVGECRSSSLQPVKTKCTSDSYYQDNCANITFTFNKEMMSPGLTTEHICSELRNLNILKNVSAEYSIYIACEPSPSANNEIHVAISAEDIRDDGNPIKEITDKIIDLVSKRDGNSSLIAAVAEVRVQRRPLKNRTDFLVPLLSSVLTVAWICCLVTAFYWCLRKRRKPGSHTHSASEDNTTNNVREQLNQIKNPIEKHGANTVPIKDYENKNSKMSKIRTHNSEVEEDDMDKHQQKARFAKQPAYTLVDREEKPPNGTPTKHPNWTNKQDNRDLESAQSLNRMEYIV
Sequence of DLL4 (Homo sapiens) (Q9NR61 27-685): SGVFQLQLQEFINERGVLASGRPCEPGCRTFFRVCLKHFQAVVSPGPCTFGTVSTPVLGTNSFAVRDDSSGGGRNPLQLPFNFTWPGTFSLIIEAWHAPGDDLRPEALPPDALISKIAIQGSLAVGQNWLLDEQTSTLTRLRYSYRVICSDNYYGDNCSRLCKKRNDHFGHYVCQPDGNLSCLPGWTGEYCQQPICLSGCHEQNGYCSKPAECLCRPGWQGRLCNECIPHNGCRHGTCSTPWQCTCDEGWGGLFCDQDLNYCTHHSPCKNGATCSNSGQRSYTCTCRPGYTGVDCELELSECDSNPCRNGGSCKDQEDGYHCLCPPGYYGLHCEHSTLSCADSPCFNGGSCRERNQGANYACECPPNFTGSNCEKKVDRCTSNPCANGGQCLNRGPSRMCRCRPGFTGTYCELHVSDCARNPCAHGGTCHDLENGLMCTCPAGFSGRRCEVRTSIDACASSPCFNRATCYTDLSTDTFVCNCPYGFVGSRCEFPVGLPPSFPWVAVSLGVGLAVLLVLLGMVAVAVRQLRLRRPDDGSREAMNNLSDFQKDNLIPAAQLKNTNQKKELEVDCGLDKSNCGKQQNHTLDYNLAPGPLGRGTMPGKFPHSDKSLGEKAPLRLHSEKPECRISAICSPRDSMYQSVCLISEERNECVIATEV
Sequence of GAL-1 (P09382 2-135): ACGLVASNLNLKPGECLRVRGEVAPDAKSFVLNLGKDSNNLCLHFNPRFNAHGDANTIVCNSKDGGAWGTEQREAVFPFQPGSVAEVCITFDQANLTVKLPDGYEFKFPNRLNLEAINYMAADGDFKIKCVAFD

Turning to GAL-1 (from UniProt P09382), the negative-log Kd (pKd) in data set [1] was 6.96.

Regarding GAL-3 (from UniProt P17931), the pKd in data set [2] was 6.46; in data set [3] it was 5.07; in data set [4], 5.05; in data set [5], 5.96.

For GAL-4 (from UniProt P56470), the pKd in [6] is 7.70.

As to GAL-8 (from UniProt O00214), the pKd in data set [7] is 5.50 and 5.70; in data set [8] it was 5.00; in data set [9], 7.57; in [10], 8.24.
